The results in this text go back to the supplement of paper PMC7877785.

± gives the uncertainty stated by the source.

This data set in a line: self-splicing fitness, log relative to wild type (ln ratio); higher = more splicing; Tetrahymena group I intron in knt gene, E. coli kanamycin selection, DiMSum; sequences stand for … in CUCUCU…GGAGGGAAAAGUUAUCAGGCAUGCACCUGGUAGCUAGUCUUUAAACCAAUAGAUUGCAUCGGUUUAAAAGGCAAGACCGUCAAAUUGCGGGAAAGGGGUCAACAGCCGUUCAGUACCAAGUCUCAGGGGAAACUUUGAGAUGGCCUUGCAAAGGGUAUGGUAAUAAGCUGACGGACAUGGUCCUAACCACGCAGCCAAGUCCUAAGUCAACAGAUCUUCUGUUGAUAUGGAUGCAGUUCACAGACUAAAUGUCGGUCGGGGAAGAUGUAUUCUUCUCAUAAGAUAUAGUCGGACCUCUCCUUAAUGGGAGCUAGCGGAUGAAGUGAUGCAACACUGGAGCCGCUGGGAACUAAUUUGUAUGCGAAAGUAUAUUGAUUAGUUUUGGAGUACUCGUGGUCG
The gist of the method: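 The eight P1ex-region nucleotides of an intron in the knt kanamycin-resistance gene on pET-22b(+) were all randomised and the library put into E. coli BL21(DE3). Six replicate transformations were grown overnight at 37°C or 30°C on LB agar with or without 25 μg/mL kanamycin, together with 100 μg/mL carbenicillin, 50 μM IPTG and 0.2% rhamnose. Colonies were pooled and amplicon-sequenced on an Illumina HiSeq 2500. Fitness from DiMSum is the error-weighted combination of wild-type-normalised replicate fold changes, kanamycin over none.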

Consider AUUUAGCAAUAUUACGCAGC, for which the “self-splicing fitness (ln)” value is -2.71 ± 0.35 (30 °C) and -1.68 ± 0.43 (37 °C). For AUUUAGCAAUAUUACGCCAG, for the setting “30 °C”, the “self-splicing fitness (ln)” value was -2.27 ± 0.27. Turning to AUUUAGCAAUAUUACGCGCU, the “self-splicing fitness (ln)” value is -0.923 ± 0.18 (30 °C) and -0.889 ± 0.15 (37 °C). As for AUUUAGCAAUAUUACGGAUC, the “self-splicing fitness (ln)” value (30 °C) was -2.84 ± 0.22 and the “self-splicing fitness (ln)” value (37 °C) is -0.766 ± 0.19. Taken in the same sequence, the figures for AUUUAGCAAUAUUACGGAUU were -2.1 ± 0.21 and -0.519 ± 0.2. Taken in the same sequence, the figures for AUUUAGCAAUAUUACGGCCC were -1.06 ± 0.2 and -0.289 ± 0.3. Taken in the same sequence, the figures for AUUUAGCAAUAUUACGGCGG were -2.31 ± 0.17 and -0.525 ± 0.17. In the case of AUUUAGCAAUAUUACGGGUU, the “self-splicing fitness (ln)” value (37 °C) is -0.906 ± 0.21. Regarding AUUUAGCAAUAUUACGGUCC, the “self-splicing fitness (ln)” value was -2.72 ± 0.17 (30 °C) and -0.126 ± 0.15 (37 °C). Taken in the same sequence, the figures for AUUUAGCAAUAUUACGGUGG were -3.55 ± 0.31 and -3.1 ± 0.27. Consider AUUUAGCAAUAUUACGGUUC, for which the “self-splicing fitness (ln)” value (37 °C) was -3.23 ± 0.43.

On to AUUUAGCAAUAUUACGUUAA, for which the “self-splicing fitness (ln)” value (30 °C) was -2.52 ± 0.27 and the “self-splicing fitness (ln)” value (37 °C) was -2.56 ± 0.34. Taken in the same sequence, the figures for AUUUAGCAAUAUUACGUUCA were -0.355 ± 0.17 and -0.395 ± 0.18. As for AUUUAGCAAUAUUACGUUCC, the “self-splicing fitness (ln)” value by setting is: (30 °C) -1.54 ± 0.26; (37 °C) -1.23 ± 0.49. Taken in the same sequence, the figures for CAAAAGCAAUAUUACGACCG were -0.0202 ± 0.1 and -0.497 ± 0.13. Taken in the same sequence, the figures for CAAAAGCAAUAUUACGAGAG were -2.79 ± 0.1 and -2.34 ± 0.11. Taken in the same sequence, the figures for CAAAAGCAAUAUUACGAUGG were -0.431 ± 0.062 and -0.139 ± 0.079. As for CAAAAGCAAUAUUACGAUGU, the “self-splicing fitness (ln)” value is -2.32 ± 0.075 (30 °C) and -1.66 ± 0.11 (37 °C). Taken in the same sequence, the figures for CAAAAGCAAUAUUACGCUAU were -2.78 ± 0.16 and -2.09 ± 0.19. Taken in the same sequence, the figures for CAAAAGCAAUAUUACGCUUA were -3.17 ± 0.23 and -2.17 ± 0.15. Taken in the same sequence, the figures for CAAAAGCAAUAUUACGCUUG were -3.3 ± 0.15 and -2.35 ± 0.19.

On to CAAAAGCAAUAUUACGGACG, for which the “self-splicing fitness (ln)” value (30 °C) was -0.163 ± 0.059 and the “self-splicing fitness (ln)” value (37 °C) was found to be 0.223 ± 0.079.

With CAAAAGCAAUAUUACGGAUG, the “self-splicing fitness (ln)” value reads like this: (30 °C) -2.76 ± 0.11; (37 °C) -1.4 ± 0.14. Taken in the same sequence, the figures for CAAAAGCAAUAUUACGGCGU were -1.23 ± 0.069 and -0.3 ± 0.086. Taken in the same sequence, the figures for CAAAAGCAAUAUUACGGUCA were -1.83 ± 0.13 and 0.0762 ± 0.1. As for CAAAAGCAAUAUUACGUAAC, the “self-splicing fitness (ln)” value runs as follows: (30 °C) -3.75 ± 0.18; (37 °C) -2.62 ± 0.3. In the case of CAAAAGCAAUAUUACGUACA, the “self-splicing fitness (ln)” value (30 °C) was -1.91 ± 0.1 and the “self-splicing fitness (ln)” value (37 °C) is -1.54 ± 0.13. Taken in the same sequence, the figures for CAAAAGCAAUAUUACGUAGG were -0.97 ± 0.057 and 0.00194 ± 0.083.

On to CAAAAGCAAUAUUACGUCAG, for which the “self-splicing fitness (ln)” value reads like this: (30 °C) -0.464 ± 0.062; (37 °C) -0.392 ± 0.075. Take CAACAGCAAUAUUACGAAGU: the “self-splicing fitness (ln)” value (37 °C) is -1.78 ± 0.16. Regarding CAACAGCAAUAUUACGACCG, the “self-splicing fitness (ln)” value (30 °C) is 0.0339 ± 0.079 and the “self-splicing fitness (ln)” value (37 °C) is -0.239 ± 0.081. Taken in the same sequence, the figures for CAACAGCAAUAUUACGACGA were -0.955 ± 0.075 and 0.0703 ± 0.084. Regarding CAACAGCAAUAUUACGAGUC, the “self-splicing fitness (ln)” value runs as follows: (30 °C) -3.58 ± 0.2; (37 °C) -2.58 ± 0.26.

For CAACAGCAAUAUUACGAUCG, the “self-splicing fitness (ln)” value was -0.183 ± 0.052 (30 °C) and 0.463 ± 0.069 (37 °C). Taken in the same sequence, the figures for CAACAGCAAUAUUACGAUUC were -0.966 ± 0.087 and -0.733 ± 0.11. Taken in the same sequence, the figures for CAACAGCAAUAUUACGCAGG were -2.19 ± 0.11 and -0.807 ± 0.085. Taken in the same sequence, the figures for CAACAGCAAUAUUACGCCCU were -1.96 ± 0.086 and -1.24 ± 0.1. For CAACAGCAAUAUUACGCCGG, the “self-splicing fitness (ln)” value was -0.647 ± 0.062 (30 °C) and 0.147 ± 0.087 (37 °C). With CAACAGCAAUAUUACGCCUC, the “self-splicing fitness (ln)” value is -3.85 ± 0.29 (30 °C) and -1.81 ± 0.18 (37 °C).
